“And” between values parts separate entries of the source, which are not always exact repeats. Identical values can stand only once. Like-named read-outs stand apart in the source and are kept apart here. Where only a bound is given, the exact number is not on record here.

Test [1] concerns the target T1, human FcγRIIa extracellular domain, His-tagged GST fusion (human, UniProt P12318 34-217).
T1 construct: extracellular domain; also called hFcgRIIa; Human IIa
T1 sequence (looked up): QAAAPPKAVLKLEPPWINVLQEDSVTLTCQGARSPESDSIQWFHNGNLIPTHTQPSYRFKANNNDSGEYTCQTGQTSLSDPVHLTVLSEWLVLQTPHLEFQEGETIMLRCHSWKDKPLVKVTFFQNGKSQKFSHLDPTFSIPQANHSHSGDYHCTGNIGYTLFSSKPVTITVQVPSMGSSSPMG
The experiment in a line: ELISA, receptor-His-GST captured by anti-GST, IgG complexed with anti-kappa F(ab')2.

Test [2] concerns the target T2, cynomolgus FcRn (cynomolgus monkey, UniProt Q8SPV9 24-297; Q8SPW0 21-119, limits assumed).
T2 construct: construct not described; also called cynoFcRn; cyno FcRn
As to the kind of experiment: SPR, FcRn on chip, kinetic, pH 6.0 (KDa).

In test [3] the target is T3, human FcRn (human, UniProt P55899 24-297; P61769 21-119, limits assumed).
T3 construct: construct not described; also called huFcRn
As to the kind of experiment: SPR, FcRn on chip, kinetic, pH 6.0 (KDa).

Test [4] addresses T4, human FcγRI extracellular domain, His-tagged GST fusion (human, UniProt P12314 16-292).
T4 construct: extracellular domain; also called hFcgRI; Human I
The experiment in a line: ELISA, receptor-His-GST captured by anti-GST, uncomplexed IgG.

For test [5], the target named is T5, human FcγRIIb extracellular domain, His-tagged GST fusion (human, UniProt P31994 43-217).
T5 construct: extracellular domain; also called hFcgRIIb; Human IIb
T5 sequence (looked up): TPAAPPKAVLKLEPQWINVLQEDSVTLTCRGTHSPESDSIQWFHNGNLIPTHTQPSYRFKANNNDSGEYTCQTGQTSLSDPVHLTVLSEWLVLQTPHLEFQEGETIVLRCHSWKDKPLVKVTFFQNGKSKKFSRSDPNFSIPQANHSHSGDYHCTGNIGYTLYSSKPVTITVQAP
As to the kind of experiment: ELISA, captured FcgR-GST; A450 ratio to 9.1RF.

The target in test [6] is T4, human FcγRI extracellular domain, …. As to the kind of experiment: ELISA, captured FcgR-GST; A450 ratio to 9.1RF.
Test [7] concerns the target T1, human FcγRIIa extracellular domain, …. As to the kind of experiment: ELISA, captured FcgR-GST; A450 ratio to 9.1RF.
For test [8], the target named is T2, cynomolgus FcRn. The experiment in a line: SPR, FcRn on chip, equilibrium, pH 6.0 (KDb).
Test [9] has as its target T3, human FcRn. The experiment in a line: SPR, FcRn on chip, equilibrium, pH 6.0 (KDb).
Test [10] concerns the target T2, cynomolgus FcRn. As to the kind of experiment: SPR, FcRn on chip, kinetic, pH 6.
For test [11], the target named is T3, human FcRn. The experiment in a line: SPR, FcRn on chip, kinetic, pH 6.
Test [12] concerns the target T6, mouse BR3-Fc (mouse).
T6 construct: (BR3 ECD fused to a murine Fc); also called mBR3-Fc; murine BR3-Fc
T6 chain: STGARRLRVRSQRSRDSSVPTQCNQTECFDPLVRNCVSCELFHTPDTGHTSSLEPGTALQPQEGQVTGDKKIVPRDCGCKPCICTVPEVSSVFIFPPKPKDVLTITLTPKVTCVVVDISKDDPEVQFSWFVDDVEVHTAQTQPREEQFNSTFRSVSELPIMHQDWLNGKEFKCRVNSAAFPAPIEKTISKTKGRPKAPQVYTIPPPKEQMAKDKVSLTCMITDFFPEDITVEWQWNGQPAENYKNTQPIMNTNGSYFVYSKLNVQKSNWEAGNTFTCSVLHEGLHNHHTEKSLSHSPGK
The experiment in a line: BAFF blocking ELISA: F(ab)'2 phage added to coated mBR3-Fc after mBAFF-Flag.

Test [13] deals with T6, mouse BR3-Fc. As to the kind of experiment: F(ab)'2 phage solution binding competition ELISA.
For test [14], the target named is T7, human BR3 extracellular domain (human, UniProt Q96RJ3 1-61).
T7 construct: biotinylated where used as tracer; also called hBR3-ECD; BR3-ECD
The experiment in a line: F(ab)'2 phage solution binding competition ELISA.

The target of test [15] is T8, mouse BR3 extracellular domain (mouse, UniProt Q9D8D0 1-64).
T8 construct: also called mBR3-ECD; mBR-ECD
T8 sequence: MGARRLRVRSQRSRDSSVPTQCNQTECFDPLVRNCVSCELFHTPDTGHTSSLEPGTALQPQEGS
The experiment in a line: F(ab)'2 phage solution binding competition ELISA.

In test [16] the target is T7, human BR3 extracellular domain. As to the kind of experiment: SPR, BR3 ECD on chip.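 Also: Anti-BR3 antibodies passed over the chip at high flow in PBS with 0.05% polysorbate 20, on and off rates fitted together globally to a 1:1 binding model.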
For test [17] the target is unchanged. As to the kind of experiment: SPR with Fab.
Test [18] addresses T9, variant human BR3-Fc fusion.
T9 construct: produced in CHO cells; also called vBR3-Fc; vhBR3-Fc
The experiment in a line: SPR, vBR3-Fc on chip.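 Also: Anti-BR3 antibodies passed over chip-bound BR3-Fc in PBS with 0.05% polysorbate 20, on and off rates fitted together globally to a 1:1 binding model.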

Test [19] shares this target. The experiment in a line: BIAcore, Fab over immobilised target.
The target of test [20] is T7, human BR3 extracellular domain. The experiment in a line: BIAcore, Fab over immobilised target.

B1: 9.1RF N434A IgG (antibody)
light: DIQMTQSPSSLSASVGDRVTITCKSSQSLLYSSNQNNYLAWYQQKPGKAPKLLIYWASTRESGVPSRFSGSGSGTDFTLTISSLQPEDFATYYCQQYYTYPYTFGQGTKVEIKRTVAAPSVFIFPPSDEQLKSGTASVVCLLNNFYPREAKVQWKVDNALQSGNSQESVTEQDSKDSTYSLSSTLTLSKADYEKHKVYACEVTHQGLSSPVTKSFNRGEC
heavy: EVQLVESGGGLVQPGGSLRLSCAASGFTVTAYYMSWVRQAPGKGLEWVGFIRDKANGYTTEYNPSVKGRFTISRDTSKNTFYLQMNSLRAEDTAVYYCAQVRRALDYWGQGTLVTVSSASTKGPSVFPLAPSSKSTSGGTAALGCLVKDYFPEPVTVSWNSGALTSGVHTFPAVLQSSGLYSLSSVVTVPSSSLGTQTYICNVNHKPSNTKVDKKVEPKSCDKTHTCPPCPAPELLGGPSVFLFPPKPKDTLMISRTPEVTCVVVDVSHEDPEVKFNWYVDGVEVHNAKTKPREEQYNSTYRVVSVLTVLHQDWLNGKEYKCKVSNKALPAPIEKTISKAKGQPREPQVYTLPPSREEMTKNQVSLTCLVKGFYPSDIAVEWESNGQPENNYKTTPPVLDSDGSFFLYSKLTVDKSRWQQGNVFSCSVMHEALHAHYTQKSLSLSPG
notes: produced in CHO cells; copies: 2 + 2
Take B1: the “EC50 (read off the curve)” value is about 2 µg/mL in [1] and about 0.006 µg/mL in test [4]. Besides, the Kd in the test with cynomolgus FcRn [2] was determined as 56.5 nM; with human FcRn [3], 52.8 nM; with cynomolgus FcRn [8], 62.7 nM; in the test with human FcRn [9], 66.6 nM. Moreover, the figures for the “binding relative to 9.1RF” value in test [5], in test [6] and in test [7] were 0.45 ratio, 0.97 ratio and 0.66 ratio, respectively. The koff came to 0.0962 s⁻¹ with cynomolgus FcRn [10] and 0.0467 s⁻¹ with human FcRn [11]. In addition, the kon with cynomolgus FcRn [10] was 1.7e+06 M⁻¹ s⁻¹; with human FcRn [11], 884000 M⁻¹ s⁻¹.

B2: 9.1RF N434W IgG (antibody)
light: DIQMTQSPSSLSASVGDRVTITCKSSQSLLYSSNQNNYLAWYQQKPGKAPKLLIYWASTRESGVPSRFSGSGSGTDFTLTISSLQPEDFATYYCQQYYTYPYTFGQGTKVEIKRTVAAPSVFIFPPSDEQLKSGTASVVCLLNNFYPREAKVQWKVDNALQSGNSQESVTEQDSKDSTYSLSSTLTLSKADYEKHKVYACEVTHQGLSSPVTKSFNRGEC
heavy: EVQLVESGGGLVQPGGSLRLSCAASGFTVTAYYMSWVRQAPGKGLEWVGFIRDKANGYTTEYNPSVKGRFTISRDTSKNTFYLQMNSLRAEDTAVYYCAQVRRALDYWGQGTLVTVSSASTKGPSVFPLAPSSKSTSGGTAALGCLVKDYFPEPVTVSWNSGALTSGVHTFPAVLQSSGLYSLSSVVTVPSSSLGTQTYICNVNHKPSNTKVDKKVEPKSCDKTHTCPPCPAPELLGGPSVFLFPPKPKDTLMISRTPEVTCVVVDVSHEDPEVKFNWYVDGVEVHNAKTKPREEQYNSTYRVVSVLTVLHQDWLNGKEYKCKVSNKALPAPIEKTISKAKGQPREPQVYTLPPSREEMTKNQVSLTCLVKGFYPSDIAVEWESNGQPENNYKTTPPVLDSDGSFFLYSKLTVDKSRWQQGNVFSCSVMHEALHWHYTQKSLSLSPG
notes: as for B1
On to B2, for which the “EC50 (read off the curve)” value in test [1] was about 2 µg/mL; in [4], about 0.006 µg/mL. Also, the Kd in the test with cynomolgus FcRn [2] turned out to be 3.03 nM; in the test with human FcRn [3], 2.37 nM; with cynomolgus FcRn [8] it was 5.1 nM; with human FcRn [9] it was 5.8 nM. Further, the “binding relative to 9.1RF” value turned out to be 0.4 ratio in [5], 1 ratio in test [6] and 0.64 ratio in test [7]. Also, the figures for the koff in the test with cynomolgus FcRn [10] and with human FcRn [11] were 0.0144 s⁻¹ and 0.0102 s⁻¹, respectively. The kon in the test with cynomolgus FcRn [10] was 4.74e+06 M⁻¹ s⁻¹; with human FcRn [11] it was 4.31e+06 M⁻¹ s⁻¹.

B3: 96 (Fab, V domains shown)
VH: EVQLVESGGGLVQPGGSLRLSCAASGFTINSSAIHWVRQAPGKGLEWVGYITPASGYTDYADSVKGRFTISADTSKNTAYLQMNSLRAEDTAVYYCAKGFHWYRGFFDYWGQGTLVTVSS
VL: DIQMTQSPSSLSASVGDRVTITCRASQDVSTAVAWYQQKPGKAPKLLIYSASFLYSGVPSRFSGSGSGTDFTLTISSLQPEDFATYYCQQSYTTPPTFGQGTKVEIKR
notes: also called V96; clone 96
Consider B3, for which the “Blocking to % (phage bound in the presence of BAFF)” value with mouse BR3-Fc [12] was determined as 65%. In the test with mouse BR3-Fc [13], this molecule came in with a 50% inhibitory concentration (IC50) of 200 nM. Also, the binding result is given as “binds” in test [14] and “no binding” in [15].

B4: Hu9.1-70 Fab (Fab, V domains shown)
VH: EVQLVESGGGLVQPGGSLRLSCAASDSPRSGYYISWVRQAPGKGLEWVGFIRDKANGYTTEYNPSVKGRFTISADTSKNTAYLQMNSLRAEDTAVYYCAQVRRALDYWGQGTLVTVSS
VL: DIQMTQSPSSLSASVGDRVTITCKSSQSLLYSSNQNNYLAWYQQKPGKAPKLLIYWASIRDSGVPSRFSGSGSGTDFTLTISSLQPEDFATYYCQQYYTYPYTFGQGTKVEIKR
notes: Fab
In the case of B4, the Kd was 0.13 nM and 0.17 nM in test [16]; 0.95 nM in [18] (220 RU BR3-Fc immobilized); 0.61 nM in test [18] (380 RU BR3-Fc immobilized); 0.78 nM in [19]; 0.15 nM in test [20]. Also, the koff in [16] was 0.000137 s⁻¹ and 0.000163 s⁻¹; in test [18] (220 RU BR3-Fc immobilized), 0.00068 s⁻¹; in test [18] (380 RU BR3-Fc immobilized), 0.000392 s⁻¹. Further, the kon in test [16] was 1.08e+06 M⁻¹ s⁻¹ and 950000 M⁻¹ s⁻¹; in [18] (220 RU BR3-Fc immobilized), 720000 M⁻¹ s⁻¹; in test [18] (380 RU BR3-Fc immobilized), 640000 M⁻¹ s⁻¹. Moreover, the “fold higher affinity than the chimeric 9.1 Fab” value in test [17] was about 2 fold.

B5: Hu9.1-RF Fab (Fab, V domains shown)
VH: EVQLVESGGGLVQPGGSLRLSCAASGFTVTAYYMSWVRQAPGKGLEWVGFIRDKANGYTTEYNPSVKGRFTISRDTSKNTFYLQMNSLRAEDTAVYYCAQVRRALDYWGQGTLVTVSS
VL: DIQMTQSPSSLSASVGDRVTITCKSSQSLLYSSNQNNYLAWYQQKPGKAPKLLIYWASTRESGVPSRFSGSGSGTDFTLTISSLQPEDFATYYCQQYYTYPYTFGQGTKVEIKR
For B5, in [16], the affinity, expressed as Kd, was 0.14 nM; the koff was determined as 0.000294 s⁻¹; the kon is 2.02e+06 M⁻¹ s⁻¹. For the same molecule, in test [17], the “fold higher affinity than the chimeric 9.1 Fab” value was about 2 fold. In [18], this molecule came in with a Kd of 6.4 nM, a koff of 0.00186 s⁻¹ and an on-rate constant (kon) of 290000 M⁻¹ s⁻¹.

B6: Hu11G9-46 Fab (Fab, V domains shown)
VH: EVQLVESGGGLVQPGGSLRLSCAASGDSITSGYWNWVRQAPGKGLEWVGYISYSGSTYYNPSLKSRFTISRDTSKNTFYLQMNSLRAEDTAVYYCAGLNDLYLYFDVWGQGTLVTVSS
VL: DIQMTQSPSSLSASVGDRVTITCRSSQSLVHSNGNTYLHWYQQKPGKAPKLLIYKVSNRFSGVPSRFSGSGSGTDFTLTISSLQPEDFATYYCSQSTHVPPFTFGQGTKVEIKR
notes: Fab
Turning to B6, the Kd is 0.46 nM and 0.652 nM in [16]; 1.38 nM and 1.62 nM in [18]; 5.4 nM in test [19]; 1.5 nM in test [20]. Further, the koff in [16] was 0.000808 s⁻¹ and 0.000867 s⁻¹; in [18], 0.000902 s⁻¹ and 0.000808 s⁻¹. Also, the kon in test [16] is 1.76e+06 M⁻¹ s⁻¹ and 1.33e+06 M⁻¹ s⁻¹; in test [18], 660000 M⁻¹ s⁻¹ and 500000 M⁻¹ s⁻¹. The “fold improved affinity relative to the chimeric 11G9 Fab” value in test [17] was over 10 fold.

Values taken from patent publication US20100280227A1 (Genentech, published 2010).
